Reference: article PMC10014863, “Structural analysis of the housecleaning nucleoside triphosphate pyrophosphohydrolase MazG from Mycobacterium tuberculosis” (Frontiers in Microbiology, 2023)
Numbering of substitutions follows the chain as printed. Names and notes keep the numbering of the source.

B1: Mtb-MazG E119A (enzyme)
chain: MIVVLVDPRRPTLVPVEAIEFLRGEVQYTEEMPVAVPWSLPAARSAHAGNDAPVLLSSDPNHPAVITRLAAGARLISAPDSQRGERLVDAVAMMDKLRTAGPWESEQTHDSLRRYLLEATYELLDAVRSGSVDQLREELGDLLLQVLFHARIAEDASQSPFTIDDVADTLMRKLGNRAPGVLAGESISLEDQLAQWEAAKASEKARKSVADDVHTGQPALALAQKVIQRAQKAGLPAHLIPDEITSVSVSADVDAENTLRTAVLDFIDRLRCAERAIAVARRGSNVAEQLDVTPLGVITEQEWLAHWPTAVNDSRGGSKKRKGMR
B2: Mtb-MazG D141A (enzyme)
chain: B1 chain with A119E, D141A
B3: Mtb-MazG E138A (enzyme)
chain: B1 chain with A119E, E138A
B4: Mtb-MazG E122A (enzyme)
chain: B1 chain with A119E, E122A
B5: Mtb-MazG (1–185) (domain or fragment)
chain: MIVVLVDPRRPTLVPVEAIEFLRGEVQYTEEMPVAVPWSLPAARSAHAGNDAPVLLSSDPNHPAVITRLAAGARLISAPDSQRGERLVDAVAMMDKLRTAGPWESEQTHDSLRRYLLEETYELLDAVRSGSVDQLREELGDLLLQVLFHARIAEDASQSPFTIDDVADTLMRKLGNRAPGVLAGE

Target: the molecule itself
Assay: SEC

Question: Which “stoichiometry N” value does the source give for B1 here?
Answer: 2

Question: For B2, which “stoichiometry N” value is on record?
Answer: 2

Question: For B3, which “stoichiometry N” value is on record?
Answer: 2

Question: Which “stoichiometry N” value does the source give for B4 here?
Answer: 2

Question: How did the “stoichiometry N” value turn out when B5 was run?
Answer: 2
